Measured values from US20140221613A1.
Values joined by “and” are separate entries in the source; they are usually repeats but may differ in a detail not shown here. Equal values may be shown once.

Tests used:
[1] = biological target: Fc region of human immunoglobulin (human); assay: pH 4.5
[2] = biological target: Fc region of human immunoglobulin (human); assay: pH 7.4
[3] = biological target: Fc region of human immunoglobulin (human); assay: SPR, Fc immobilised, neutral region
[4] = biological target: Fc region of human immunoglobulin (human); assay: SPR, Fc immobilised, weakly acidic region
[5] = biological target: IgG1 type humanized monoclonal antibody
[6] = biological target: IgG1 type humanized monoclonal antibody; remark: listed apart in the source
[7] = biological target: IgG1 type humanized monoclonal antibody; remark: listed apart in the source
human immunoglobulin IgG [8] = biological target: human immunoglobulin IgG
human immunoglobulin IgG [9] = biological target: human immunoglobulin IgG; remark: listed apart in the source
[10] = biological target: IgG1 type humanized monoclonal antibody; assay: SPR, IgG1 antibody immobilised, pH 7.4

B1: M-PG07 (designed binder)
chain: MDTYKLILNGKTLKGETTTEAVDAATAEKVFKQYANEHGVDGEWTYDPETKTFTVTE
[1]
  Kd: 230 nM
[2]
  Kd: 290 nM

B2: M-PG19 (designed binder)
chain: MDTYKLILNGKTLKGETTTEAVDAATAEKVFKHYANEHGVHGHWTYDPETKTFTVTE
[1]
  Kd: 1000 nM
[3]
  fold of avidity in the neutral region against M-PG01: 11 times
[4]
  fold of affinity in the acidic region against M-PG01: 0.6 times
[5]
  Kd: 19 nM
[2]
  Kd: 43 nM

B3: CGB19H-5D (designed binder)
chain: MAYYDPETGTWYSGGRDTYKLILNGKTLKGETTTEAVDAATAEKVFKHYANEHGVHGHWTYDPETKTFTVTERPEVIDASELTPAVDTYKLILNGKTLKGETTTEAVDAATAEKVFKHYANEHGVHGHWTYDPETKTFTVTERPEVIDASELTPAVDTYKLILNGKTLKGETTTEAVDAATAEKVFKHYANEHGVHGHWTYDPETKTFTVTERPEVIDASELTPAVDTYKLILNGKTLKGETTTEAVDAATAEKVFKHYANEHGVHGHWTYDPETKTFTVTERPEVIDASELTPAVDTYKLILNGKTLKGETTTEAVDAATAEKVFKHYANEHGVHGHWTYDPETKTFTVTERPEVIDASELTPAVGGGGSGGGGSGGGGSGGGGCHHHHHH
[6]
  Dissociation Rate of Antibody at an acidic pH, pH2 (30s) later: 63.4% and 81.8%
  Dissociation Rate of Antibody at an acidic pH, pH5 (30s) later: 5.6% and 2.1%
[7]
  Binding Rate of Antibody after Running Buffer for 10 min (Binding portion): 65.2% and 82.7%

B4: OXADac-PG14 (designed binder)
chain: MGAGTPVTAPLAGTIWKVLASEGQTVAAGEVLLILEAMKMETEIRAAQAGTVRGIAVKAGDAVAVGDTLMTLAGSGSDLYDDDDKGIITSLYKKAGSAAAPFTDTYKLILNGKTLKGETTTEAVDAATAEKVFKQYANEHGVDGHWTYDPETKTFTVTE
Human immunoglobulin IgG [8]
  Ratio of the remaining amount of antibody by SPR sensor gram at pH 4.0: 71%
  koff: 0.04 s⁻¹

B5: OXADac-PG15 (designed binder)
chain: MGAGTPVTAPLAGTIWKVLASEGQTVAAGEVLLILEAMKMETEIRAAQAGTVRGIAVKAGDAVAVGDTLMTLAGSGSDLYDDDDKGIITSLYKKAGSAAAPFTDTYKLILNGKRLKGETTTEAVDAATAEKVFKQYANEHGVDGEWTYDPETKTFTVTE
Human immunoglobulin IgG [8]
  Ratio of the remaining amount of antibody by SPR sensor gram at pH 4.0: 90%
  koff: 0.00044 s⁻¹

B6: OXADac-PG16 (designed binder)
chain: MGAGTPVTAPLAGTIWKVLASEGQTVAAGEVLLILEAMKMETEIRAAQAGTVRGIAVKAGDAVAVGDTLMTLAGSGSDLYDDDDKGIITSLYKKAGSAAAPFTDTYKLILNGKTLKGETITEAVDAATAEKVFKQYANEHGVDGEWTYDPETKTFTVTE
Human immunoglobulin IgG [8]
  Ratio of the remaining amount of antibody by SPR sensor gram at pH 4.0: 94%
  koff: 0.00013 s⁻¹

B7: OXADac-PG17 (designed binder)
chain: MGAGTPVTAPLAGTIWKVLASEGQTVAAGEVLLILEAMKMETEIRAAQAGTVRGIAVKAGDAVAVGDTLMTLAGSGSDLYDDDDKGIITSLYKKAGSAAAPFTDTYKLILNGKRLKGETITEAVDAATAEKVFKQYANEHGVDGEWTYDPETKTFTVTE
Human immunoglobulin IgG [8]
  Ratio of the remaining amount of antibody by SPR sensor gram at pH 4.0: 86%
  koff: 0.032 s⁻¹

B8: OXADac-PG13 (designed binder)
chain: MGAGTPVTAPLAGTIWKVLASEGQTVAAGEVLLILEAMKMETEIRAAQAGTVRGIAVKAGDAVAVGDTLMTLAGSGSDLYDDDDKGIITSLYKKAGSAAAPFTDTYKLILNGKTLKGETTTEAVDAATAEKVFKQYANEHGVHGEWTYDPETKTFTVTE
Human immunoglobulin IgG [8]
  Ratio of the remaining amount of antibody by SPR sensor gram at pH 4.0: 64%
  koff: 0.06 s⁻¹

B9: OXADac-PG07 (designed binder)
chain: MGAGTPVTAPLAGTIWKVLASEGQTVAAGEVLLILEAMKMETEIRAAQAGTVRGIAVKAGDAVAVGDTLMTLAGSGSDLYDDDDKGIITSLYKKAGSAAAPFTDTYKLILNGKTLKGETTTEAVDAATAEKVFKQYANEHGVDGEWTYDPETKTFTVTE
Human immunoglobulin IgG [8]
  Ratio of the remaining amount of antibody by SPR sensor gram at pH 4.0: 93%
  koff: 0.00011 s⁻¹

B10: OXADac-PG19 (designed binder)
chain: MGAGTPVTAPLAGTIWKVLASEGQTVAAGEVLLILEAMKMETEIRAAQAGTVRGIAVKAGDAVAVGDTLMTLAGSGSDLYDDDDKGIITSLYKKAGSAAAPFTDTYKLILNGKTLKGETTTEAVDAATAEKVFKHYANEHGVHGHWTYDPETKTFTVTE
Human immunoglobulin IgG [8]
  Ratio of the remaining amount of antibody by SPR sensor gram at pH 4.0: 38%
  koff: 0.27 s⁻¹
Human immunoglobulin IgG [9]
  increase of the dissociation rate constant against the wild-type: 1000 fold
  percent of adsorbed IgG dissociated at pH 4.0: 60%

B11: OXADac-PG20 (designed binder)
chain: MGAGTPVTAPLAGTIWKVLASEGQTVAAGEVLLILEAMKMETEIRAAQAGTVRGIAVKAGDAVAVGDTLMTLAGSGSDLYDDDDKGIITSLYKKAGSAAAPFTDTYKLILNGKTLKGETTTEAVHAATAEKVFKHYANEHGVHGHWTYDPETKTFTVTE
Human immunoglobulin IgG [8]
  Ratio of the remaining amount of antibody by SPR sensor gram at pH 4.0: 58%

B12: CGB19H-1D (designed binder)
chain: MAYYDPETGTWYSGGRDTYKLILNGKTLKGETTTEAVDAATAEKVFKHYANEHGVHGHWTYDPETKTFTVTERPEVIDASELTPAVGGGGSGGGGSGGGGSGGGGCHHHHHH
[6]
  Dissociation Rate of Antibody at an acidic pH, pH2 (30s) later: 52.7%
  Dissociation Rate of Antibody at an acidic pH, pH3 (30s) later: 35.1%
  Dissociation Rate of Antibody at an acidic pH, pH5 (30s) later: 7.1%
[7]
  Binding Rate of Antibody after Running Buffer for 10 min (Binding portion): 52.6%

B13: CGB19H-4D (designed binder)
chain: MAYYDPETGTWYSGGRDTYKLILNGKTLKGETTTEAVDAATAEKVFKHYANEHGVHGHWTYDPETKTFTVTERPEVIDASELTPAVDTYKLILNGKTLKGETTTEAVDAATAEKVFKHYANEHGVHGHWTYDPETKTFTVTERPEVIDASELTPAVDTYKLILNGKTLKGETTTEAVDAATAEKVFKHYANEHGVHGHWTYDPETKTFTVTERPEVIDASELTPAVDTYKLILNGKTLKGETTTEAVDAATAEKVFKHYANEHGVHGHWTYDPETKTFTVTERPEVIDASELTPAVGGGGSGGGGSGGGGSGGGGCHHHHHH
[6]
  Dissociation Rate of Antibody at an acidic pH, pH2 (30s) later: 55.6% and 76.3%
  Dissociation Rate of Antibody at an acidic pH, pH3 (30s) later: 34.6% and 18.6%
  Dissociation Rate of Antibody at an acidic pH, pH5 (30s) later: 6.9% and 3.7%
[7]
  Binding Rate of Antibody after Running Buffer for 10 min (Binding portion): 59.4% and 77.8%

B14: CGB19H-3D (designed binder)
chain: MAYYDPETGTWYSGGRDTYKLILNGKTLKGETTTEAVDAATAEKVFKHYANEHGVHGHWTYDPETKTFTVTERPEVIDASELTPAVDTYKLILNGKTLKGETTTEAVDAATAEKVFKHYANEHGVHGHWTYDPETKTFTVTERPEVIDASELTPAVDTYKLILNGKTLKGETTTEAVDAATAEKVFKHYANEHGVHGHWTYDPETKTFTVTERPEVIDASELTPAVGGGGCHHHHHH
[6]
  Dissociation Rate of Antibody at an acidic pH, pH2 (30s) later: 51.2% and 67.4%
  Dissociation Rate of Antibody at an acidic pH, pH3 (30s) later: 36.2% and 29.9%
  Dissociation Rate of Antibody at an acidic pH, pH5 (30s) later: 6.4% and 4.6%
[10]
  fold avidity improvement against M-PG19: 190 fold
  fold difference of the dissociation rate constant against M-PG19: 370 times
[7]
  Binding Rate of Antibody after Running Buffer for 10 min (Binding portion): 62.5% and 69.6%
[5]
  Kd: 0.1 nM
